According to the supplement of paper PMC10126150:
± gives the standard deviation of the averaged measurements.

tested on: ATP; test: switch fluorescence ratio, 500 uM ATP over buffer (Cy3 cluster intensity, sum of 5 cycles each) (fold (ratio)); higher = stronger signal-on switching upon ATP binding; sequences stand for … in TCGTCGGCAGCGTCAGATGTGTATAAGAGACAGTTTTTTTTTTTTTTTTTTTTTTTTT…TC; conditions: aptamer strand: ATP DNA aptamer (quencher-CACCTGGGGGAGTATTGCGGAGGAAGG + anchor), 100 nM annealed; ATP concentration: 500 uM
In short: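 Between each of five buffer/ATP cycles, the flow-cell was stripped with NaOH and re-annealed. Each cycle imaged Cy3-labelled switching-strand clusters, annealed to 100 nM quencher-labelled ATP aptamer on a modified Illumina MiSeq flow-cell, first in selection buffer and then after 15 min with 500 uM ATP at 22 °C. The fluorescence ratio is summed target-cycle over summed buffer-cycle Cy3 intensity per cluster, averaged per switch-domain sequence, with clusters outside 100-1000 RFU excluded.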
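Note: ATP exposure 15 min at 22 °C before imaging.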

Sequence | switch fluorescence ratio
TGTTGTTTGG | 1 ± 0.063
TGTTTAAAAT | 1.02 ± 0.046
TGTTTAAATG | 1.01 ± 0.026
TGTTTAAGTT | 1.02 ± 0.023
TGTTTAATGT | 1.01 ± 0.019
TGTTTACAGC | 0.997 ± 0.027
TGTTTATATC | 0.9856 ± 0.0076
TGTTTATGTT | 0.9975 ± 0.0064
TGTTTCGGAA | 1.02 ± 0.038
TGTTTCTCGA | 0.9619 ± 0.0041
TGTTTCTCGT | 1.01 ± 0.015
TGTTTGAAGT | 0.989 ± 0.023
TGTTTGGAGG | 0.985 ± 0.022
TGTTTGGTGG | 0.968 ± 0.026
TGTTTGTCTT | 1 ± 0.069
TGTTTGTGTA | 1.03 ± 0.022
TGTTTGTTGT | 1.03 ± 0.063
TGTTTTAATG | 0.988 ± 0.011
TGTTTTCAGT | 0.975 ± 0.02
TGTTTTCTAG | 0.99 ± 0.022
TGTTTTGGGT | 0.985 ± 0.039
TGTTTTGTTG | 0.99 ± 0.016
TGTTTTTATA | 1.005 ± 0.0091
TGTTTTTGAG | 0.9888 ± 0.0034
TGTTTTTGTA | 1.07 ± 0.13

Sequence | switch fluorescence ratio
TTAAAAAAGG | 1.01 ± 0.087
TTAAAAAGAT | 1.04 ± 0.051
TTAAAAAGGA | 0.986 ± 0.016
TTAAAAAGGT | 1 ± 0.021
TTAAAAATCA | 0.984 ± 0.025
TTAAAAATGA | 1.02 ± 0.021
TTAAAAATGC | 1.02 ± 0.011
TTAAAAGAGA | 1.04 ± 0.0028
TTAAAAGCAG | 1.016 ± 0.0045
TTAAAAGCTT | 1.05 ± 0.024
TTAAAAGGAA | 1.004 ± 0.0034
TTAAAAGGTT | 1.01 ± 0.029
TTAAAATGGG | 1.01 ± 0.043
TTAAAATGTC | 0.992 ± 0.014
TTAAACAAGG | 1.01 ± 0.012
TTAAAGAATT | 1.003 ± 0.0084
TTAAAGACGG | 1.06 ± 0.11
TTAAAGAGAA | 1 ± 0.013
TTAAAGATAT | 1.23 ± 0.32
TTAAAGCAGT | 1.56 ± 0.47
TTAAAGCTTA | 1.02 ± 0.04
TTAAAGGGCG | 0.976 ± 0.046
TTAAAGTCGT | 1.01 ± 0.026
TTAAAGTGCC | 1.01 ± 0.0072
TTAAATAGCG | 0.982 ± 0.036

Sequence | switch fluorescence ratio
TTAAATTTCG | 1.003 ± 0.0035
TTAACACTCC | 1.2 ± 0.02
TTAACATGTG | 0.9593 ± 0.0034
TTAACATGTT | 0.996 ± 0.022
TTAACATTAC | 1.38 ± 0.11
TTAACCGGGA | 1.02 ± 0.059
TTAACTGCTT | 0.9894 ± 0.0088
TTAAGAACGG | 1.03 ± 0.075
TTAAGAAG | 0.996 ± 0.015
TTAAGAATTT | 0.991 ± 0.031
TTAAGACTGT | 1.01 ± 0.037
TTAAGACTTG | 1 ± 0.012
TTAAGATGGG | 0.996 ± 0.025
TTAAGCACTT | 1.19 ± 0.062
TTAAGCCAGG | 1.16 ± 0.14
TTAAGCCTGT | 0.969 ± 0.021
TTAAGCGTAG | 1.01 ± 0.013
TTAAGCTAAT | 1.42 ± 0.5
TTAAGCTCGC | 0.986 ± 0.045
TTAAGCTCGG | 0.989 ± 0.037
TTAAGCTGGT | 0.985 ± 0.022
TTAAGCTTGA | 1.015 ± 0.0062
TTAAGGAGTG | 0.95 ± 0.0099
TTAAGGGAAC | 0.9966 ± 0.0052
TTAAGGGAGG | 0.992 ± 0.03

Sequence | switch fluorescence ratio
TTAAGGGCAG | 1.01 ± 0.03
TTAAGGGCCA | 0.9709 ± 0.0035
TTAAGGGGA | 1.06 ± 0.11
TTAAGGGGTT | 1.03 ± 0.044
TTAAGGGTTG | 1.02 ± 0.019
TTAAGTACGA | 1.27 ± 0.041
TTAAGTGCCC | 1 ± 0.021
TTAAGTTCTT | 0.996 ± 0.019
TTAAGTTGGT | 0.997 ± 0.045
TTAATAAATC | 0.996 ± 0.021
TTAATAAATG | 1 ± 0.015
TTAATAGTTG | 0.97177 ± 0.00065
TTAATATCCT | 1.06 ± 0.026
TTAATCAGGT | 1.01 ± 0.016
TTAATCCAGT | 1.02 ± 0.035
TTAATCGATG | 1 ± 0.019
TTAATGCAGG | 1.006 ± 0.006
TTAATGCTTT | 1.13 ± 0.23
TTAATGGTAT | 1.02 ± 0.021
TTAATGTTTG | 0.997 ± 0.042
TTAATTAACC | 1.13 ± 0.098
TTAATTAATA | 0.985 ± 0.013
TTAATTAATG | 1.05 ± 0.089
TTAATTACGG | 1.01 ± 0.017
TTAATTAGGT | 1.02 ± 0.071
